In article PMC6359636, “Advances in Drug Delivery and Biomaterials: Facts and Vision” (Pharmaceutics, 2019):

Tested on: blood clots
Assay: Blood clot resolution in murine mesentery venules
Format: in vivo
Excerpt: Here, a novel thrombolytic nanoagent is realized by conjugating directly the clinical formulation of tPA to the porous structure of soft discoidal polymeric nanoconstructs (tPA-DPNs).

B1: Tissue plasminogen activator (protein, UniProt P00750 36-562, looked up)
Tissue-type plasminogen …: SYQVICRDEKTQMIYQQHQSWLRPVLRSNRVEYCWCNSGRAQCHSVPVKSCSEPRCFNGGTCQQALYFSDFVCQCPEGFAGKCCEIDTRATCYEDQGISYRGTWSTAESGAECTNWNSSALAQKPYSGRRPDAIRLGLGNHNYCRNPDRDSKPWCYVFKAGKYSSEFCSTPACSEGNSDCYFGNGSAYRGTHSLTESGASCLPWNSMILIGKVYTAQNPSAQALGLGKHNYCRNPDGDAKPWCHVLKNRRLTWEYCDVPSCSTCGLRQYSQPQFRIKGGLFADIASHPWQAAIFAKHRRSPGERFLCGGILISSCWILSAAHCFQERFPPHHLTVILGRTYRVVPGEEEQKFEVEKYIVHKEFDDDTYDNDIALLQLKSDSSRCAQESSVVRTVCLPPADLQLPDWTECELSGYGKHEALSPFYSERLKEAHVRLYPSSRCTSQHLLNRTVTDNMLCAGDTRSGGPQANLHDACQGDSGGPLVCLNDGRMTLVGIISWGLGCGQKDVPGVYTKVTNYLDWIRDNMRP
clots dissolved / vessels (1.0 mg/kg, about 1 tenth of the clinical dose): 16% | blood clots resolved / vessels recanalized (intravenous, 2.5 mg/kg): about 40%
